This experiment has as its target eCry3.1Ab hybrid insecticidal protein. As to the kind of experiment: direct ELISA: eCry3.1Ab coated at 1 ug/ml, RGS-His HRP detection.

B1: synNAPS13 variant Y44A (designed binder)
chain: RGSHHHHHHGSMVKVKFKRWGEEKEVDTSKILHVLRVGKYVRFSYDDNGKLGAGAVTEKDAPKELLDMLARAEREKK
As to B1, the Binding (OD 450 nm) came out at 0.4 OD 450 nm.

The values are drawn from patent publication US20210181204A1.
